{"source": "paper PMC4010391", "about": "“Mammalian TBX1 Preferentially Binds and Regulates Downstream Targets Via a Tandem T-site Repeat”", "binders": {"B1": {"name": "Brachyury palindrome probe (Fig S1) (dsDNA)", "DNA 1": "CTAGATTTCACACCTAGGTGTGAAATCTAG", "DNA 2": "B1 DNA 1"}}, "target": "T1, GST-TBX1 T-box (Mus musculus, UniProt P70323 90-303)", "T1 sequence": "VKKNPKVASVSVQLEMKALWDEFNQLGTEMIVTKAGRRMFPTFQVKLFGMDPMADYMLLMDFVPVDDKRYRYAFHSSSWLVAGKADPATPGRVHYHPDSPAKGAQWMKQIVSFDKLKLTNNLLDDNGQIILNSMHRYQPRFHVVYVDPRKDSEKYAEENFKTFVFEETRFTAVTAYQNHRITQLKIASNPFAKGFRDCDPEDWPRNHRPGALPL", "experiment": "EMSA; 6 h exposure; EMSA, 12.5 ul, GST-TBX1 5-25 ug, HEPES/MgCl2/KCl/DTT/EDTA/glycerol buffer (stock concentrations only, pH not given), 1 ug/ul poly(dI-dC), Ficoll, room temperature, 10 min + 10 min, 5% acrylamide gel", "conditions": "protein: recombinant; tags: N-terminal GST (pGEX4t3); chain copies: 2; label: 5'-32P"}
{"binder": "B1", "values": [{"measurement": "binding result", "result": "binds"}]}
